We go through 47 substances from US20240368668A1, “SUBSTRATES AND BIOMARKERS OF ADAMTS7” (The Broad Institute, Inc., priority 2021, published 2024).

Square brackets hold non-standard residues; d marks the D form. Ends that are not written are not given here. pGlu = O=C1CC[C@@H](C(=O)O)N1

In this assay the target is T1, mouse ADAMTS7 (Mus musculus, UniProt Q68SA9, E373Q).
T1 construct: Full-length mouse Adamts7 1-1857 (Uniprot Q68SA9, WT or E373Q catalytic mutant); expressed in transfected cells; host or cells: Human Coronary Artery Smooth Muscle Cells (HCA-SMC, Lonza), adenovirus 50 MOI
T1 sequence (Q68SA9 221-1657 E373Q): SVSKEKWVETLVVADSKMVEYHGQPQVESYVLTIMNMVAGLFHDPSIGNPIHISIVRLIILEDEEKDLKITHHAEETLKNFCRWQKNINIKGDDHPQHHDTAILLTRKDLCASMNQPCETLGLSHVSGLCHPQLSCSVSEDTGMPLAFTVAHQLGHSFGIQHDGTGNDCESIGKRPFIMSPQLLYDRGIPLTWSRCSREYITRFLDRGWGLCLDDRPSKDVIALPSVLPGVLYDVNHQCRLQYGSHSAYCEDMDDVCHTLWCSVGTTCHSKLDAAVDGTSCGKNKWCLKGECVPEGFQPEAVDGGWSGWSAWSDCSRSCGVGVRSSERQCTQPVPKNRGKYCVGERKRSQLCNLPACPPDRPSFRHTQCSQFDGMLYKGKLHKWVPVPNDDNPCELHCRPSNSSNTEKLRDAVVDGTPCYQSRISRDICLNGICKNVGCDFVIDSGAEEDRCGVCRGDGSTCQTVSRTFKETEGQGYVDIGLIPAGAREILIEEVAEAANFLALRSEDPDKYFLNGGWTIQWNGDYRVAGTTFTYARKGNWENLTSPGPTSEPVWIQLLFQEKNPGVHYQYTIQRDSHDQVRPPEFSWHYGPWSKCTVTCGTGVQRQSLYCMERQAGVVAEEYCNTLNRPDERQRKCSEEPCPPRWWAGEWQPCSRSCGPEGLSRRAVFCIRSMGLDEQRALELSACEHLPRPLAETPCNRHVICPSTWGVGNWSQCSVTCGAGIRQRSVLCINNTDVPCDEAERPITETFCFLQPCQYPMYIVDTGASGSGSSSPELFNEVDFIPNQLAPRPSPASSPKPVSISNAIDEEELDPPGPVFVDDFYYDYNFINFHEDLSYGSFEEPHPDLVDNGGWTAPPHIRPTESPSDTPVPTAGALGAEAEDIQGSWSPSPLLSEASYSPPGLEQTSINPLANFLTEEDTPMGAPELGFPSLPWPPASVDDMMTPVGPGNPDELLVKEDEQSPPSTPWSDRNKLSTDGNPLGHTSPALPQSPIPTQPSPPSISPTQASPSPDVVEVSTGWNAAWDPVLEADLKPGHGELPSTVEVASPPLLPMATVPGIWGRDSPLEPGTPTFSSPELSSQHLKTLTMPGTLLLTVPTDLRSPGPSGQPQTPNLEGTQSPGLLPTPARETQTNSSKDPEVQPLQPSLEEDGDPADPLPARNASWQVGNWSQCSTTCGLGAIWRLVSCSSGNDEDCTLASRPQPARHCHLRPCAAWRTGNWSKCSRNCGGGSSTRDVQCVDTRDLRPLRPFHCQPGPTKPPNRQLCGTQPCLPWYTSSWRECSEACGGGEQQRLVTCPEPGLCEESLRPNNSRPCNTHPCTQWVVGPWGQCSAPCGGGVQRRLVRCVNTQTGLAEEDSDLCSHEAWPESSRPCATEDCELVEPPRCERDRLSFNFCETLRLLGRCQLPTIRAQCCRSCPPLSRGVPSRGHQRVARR
Put plainly: TMT10 TAILS N-terminomics, SMC1 experiment (Ad-mADAMTS7 WT vs EQ vs Luc, technical replicates, trypsin digest). It is filed as cell-based. As to conditions: TAILS neo-N-terminal peptide abundance; log fold change, Ad-mADAMTS7 EQ over Luc. Put shortly: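 Full-length mouse ADAMTS7 (WT or E373Q mutant, C-terminal 3xFLAG) or luciferase was transduced via adenovirus, 50 MOI, into HCA-SMC (SMC1, SMC2) or HUVEC. SMC1: pooled media, technical triplicates 400 ug; SMC2: process triplicates 300 ug; HUVEC: process triplicates 200 ug, bFGF2 10 ng/ml.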
“HEG1_49 (GAGLELQLER; listed as Homo sapiens)” displayed a logFC.mEQ.over.Luc of 0.51.
The value for “HLA−C_52 (VDDTQFVR; listed as Homo sapiens)” was 0.35; that for “HSPG2_275 (LLPGSVR; listed as Homo sapiens)” was 0.38.
Take “HSPG2_1937 (SSAGQQVAR; listed as Homo sapiens)”: the logFC.mEQ.over.Luc is given as −0.15.
Turning to “HSPG2_2331 (ANLAYPAGSTQPIR; listed as Homo sapiens)”, the logFC.mEQ.over.Luc amounted to 0.03.
To “HSPG2_2333 (LAYPAGSTQPIR; listed as Homo sapiens)” belongs 0.01; to “HSPG2_2688 (VADSGEYVCR; listed as Homo sapiens)”, 0.14.
The substance “HSPG2_3250 (SPLPWQHR; listed as Homo sapiens)” returned a logFC.mEQ.over.Luc of 0.00.
The substance “HSPG2_3542 (IAHVELADAGQYR; listed as Homo sapiens)” returned a logFC.mEQ.over.Luc of −0.07.
To “HSPG2_3647 ([pGlu]GKVKAFAHLQVPER; listed as Homo sapiens)” belongs −0.26; to “HSPG2_3672 (SFLPLPTIKDAYR; listed as Homo sapiens)”, 0.06; to “HSPG2_3813 (SSGFIGCVR; listed as Homo sapiens)”, −0.28.
Substance “HSPG2_4004 (SAEPLALGR; listed as Homo sapiens)” came in with a logFC.mEQ.over.Luc of −0.37.
The substance “HSPG2_4021 (LNKDGSLR; listed as Homo sapiens)” registered a logFC.mEQ.over.Luc of −0.02.
The value for “HSPG2_4075 (GCVGEVSVNGKR; listed as Homo sapiens)” was 0.02.
To “HSPG2_4133 (DGFKGDLCEHEENPCQLR; listed as Homo sapiens)” belongs −0.14; to “HTRA1_33 (LAAGCPDR; listed as Homo sapiens)”, 0.09; to “IFI30_43 (YKTGNLYLR; listed as Homo sapiens)”, 0.00.
The value for “IGFBP3_31 (SAGLGPVVR; listed as Homo sapiens)” was −0.04; that for “IGFBP3_32 (AGLGPVVR; listed as Homo sapiens)” was 0.28.
“IGFBP3_200 (FSSESKR; listed as Homo sapiens)” returned a logFC.mEQ.over.Luc of −0.09.
“IGFBP7_101 (AAGGPGVSGVCVCKSR; listed as Homo sapiens)”: the logFC.mEQ.over.Luc came to 0.29.
As for “LASP1_123 (HEEFEKSR; listed as Homo sapiens)”, the logFC.mEQ.over.Luc is recorded as −0.53.
The value for “LGALS1_53 (HGDANTIVCNSKDGGAWGTEQR; listed as Homo sapiens)” was 0.94.
On to “LGALS3BP_447 (FQAPSDYR; listed as Homo sapiens)”, for which the logFC.mEQ.over.Luc amounted to 0.57.
To “LOXL1_219 (VASAGVIYPYQPR; listed as Homo sapiens)” belongs −0.10; to “LOXL2_37 (FQQPAPEYHQPQAPANVAKIQLR; listed as Homo sapiens)”, 0.09.
In the case of “LOXL2_38 ([code q]QPAPEYHQPQAPANVAKIQLR; not fully specified; listed as Homo sapiens)”, the logFC.mEQ.over.Luc came out at 0.11.
To “LOXL2_318 (AYKPEQPLVR; listed as Homo sapiens)” belongs 0.00; to “LOX_58 (LSLGSQYQPQR; listed as Homo sapiens)”, −0.11; to “LOX_80 (ANASAQQPR; listed as Homo sapiens)”, −0.16.
Substance “LOX_81 (NASAQQPR; listed as Homo sapiens)” came in with a logFC.mEQ.over.Luc of −0.30.
The value for “LOX_123 (HWFQAGYSTSR; listed as Homo sapiens)” was −0.22.
Substance “LOX_124 (WFQAGYSTSR; listed as Homo sapiens)” returned a logFC.mEQ.over.Luc of 0.08.
To “LOX_126 (QAGYSTSR; listed as Homo sapiens)” belongs 0.02.
To “LTBP1_393 (LTATNFR; listed as Homo sapiens)” belongs 0.14; to “LTBP1_494 (SVQIHQVSR; listed as Homo sapiens)”, −0.01; to “LTBP1_540 (HQQVIPHVYPVAAKTQLGR; listed as Homo sapiens)”, 0.13.
Consider “LTBP1_546 (HVYPVAAKTQLGR; listed as Homo sapiens)”, for which the logFC.mEQ.over.Luc is given as −1.05.
Consider “LTBP2_485 (SVQIHQVAQVR; listed as Homo sapiens)”, for which the logFC.mEQ.over.Luc was −0.42.
Substance “LTBP2_533 (SGEPPRPLPPAAPR; listed as Homo sapiens)” returned a logFC.mEQ.over.Luc of 0.28.
Turning to “LTBP2_677 (SLGPGTCTLPLAQR; listed as Homo sapiens)”, the logFC.mEQ.over.Luc is listed as 0.05.
To “LTBP2_760 (SSGALPGPAER; listed as Homo sapiens)” belongs 0.29; to “LTBP2_1023 (GKCTNLEGSFR; listed as Homo sapiens)”, 0.03.
“LTBP2_1371 (SGQKGHAPCSSVLGR; listed as Homo sapiens)” had a logFC.mEQ.over.Luc of 0.31.
To “LTBP2_1560 (TTYTECCCQDGEAWSQQCALCPPR; listed as Homo sapiens)” belongs 0.23.
Consider “LTBP2_1584 (SSEVYAQLCNVAR; listed as Homo sapiens)”, for which the logFC.mEQ.over.Luc is listed as 0.32.
